Experimental data published in article PMC5456370, “Bacterial co-expression of human Tau protein with protein kinase A and 14-3-3 for studies of 14-3-3/phospho-Tau interaction” (PLoS ONE, 2017).

B1: untagged human 14-3-3σ devoid of the C-terminal flexible peptide (residues 232-248) (domain or fragment, UniProt P31947 1-231, looked up)
chain: MERASLIQKAKLAEQAERYEDMAAFMKGAVEKGEELSCEERNLLSVAYKNVVGGQRAAWRVLSSIEQKSNEEGSEEKGPEVREYREKVETELQGVCDTVLGLLDSHLIKEAGDAESRVFYLKMKGDYYRYLAEVATGDDKKRIIDSARSAYQEAMDISKKEMPPTNPIRLGLALNFSVFHYEIANSPEEAISLAKTTFDEAMADLHTLSEDSYKDSTLIMQLLRDNLTLWT
notes: human 14-3-3 protein sigma, Uniprot P31947, residues 1-231 out of 248; also called 14-3-3σΔC; σΔC; source: purified (ammonium sulfate fractionation, anion-exchange and gel-filtration chromatography); also E. coli BL21(DE3), co-expressed with Tau and PKA, in lysate
B2: full-length human 14-3-3γ (natural protein, UniProt P61981 1-247, looked up)
chain: MVDREQLVQKARLAEQAERYDDMAAAMKNVTELNEPLSNEERNLLSVAYKNVVGARRSSWRVISSIEQKTSADGNEKKIEMVRAYREKIEKELEAVCQDVLSLLDNYLIKNCSETQYESKVFYLKMKGDYYRYLAEVATGEKRATVVESSEKAYSEAHEISKEHMQPTHPIRLGLALNYSVFYYEIQNAPEQACHLAKTAFDDAIAELDTLNEDSYKDSTLIMQLLRDNLTLWTSDQQDDDGGEGNN
notes: human 14-3-3 protein gamma, Uniprot P61981, full length

Target: the molecule itself
Assay: native gel or EMSA; purified 14-3-3 isoforms (14 μM per monomer) without or with PKA (2 μM) in 50 mM Hepes-NaOH pH 7.3, 10 mM NaCl, 4 mM MgCl2, 60 μM ATP, 2 h at 30°C; non-denaturing 15% gel, pH 8.6; dimer and monomer regions of the gel

Protein | binding result
B1 | binds
B2 | binds
